Assay results taken from article PMC7804152, “Structural basis for the multi-activity factor Rad5 in replication stress tolerance”.

Columns and labels:
His-KlRad5 = molecular target: T1, His-KlRad5 (Kluyveromyces lactis, UniProt Q6CJM4 163-1114); assay: fluorescence polarization; FP: 20 mM Tris pH 7.5, 50 mM (dsDNA, KlHIRAN) or 70 mM (ssDNA) NaCl, 2 mM MgCl2, 1 nM DNA, room temp; EMSA: 20 mM Tris pH 7.5, 100 mM KCl, 0.5 mM DTT, 3% glycerol, 2 mM MgCl2, 250 ug/mL BSA, 4 C; pull-down: 20 mM Tris pH 7.5, 50 mM NaCl, 4 C; details: protein: recombinant; tags: N-terminal His6; label: 5'-FAM
T1 sequence: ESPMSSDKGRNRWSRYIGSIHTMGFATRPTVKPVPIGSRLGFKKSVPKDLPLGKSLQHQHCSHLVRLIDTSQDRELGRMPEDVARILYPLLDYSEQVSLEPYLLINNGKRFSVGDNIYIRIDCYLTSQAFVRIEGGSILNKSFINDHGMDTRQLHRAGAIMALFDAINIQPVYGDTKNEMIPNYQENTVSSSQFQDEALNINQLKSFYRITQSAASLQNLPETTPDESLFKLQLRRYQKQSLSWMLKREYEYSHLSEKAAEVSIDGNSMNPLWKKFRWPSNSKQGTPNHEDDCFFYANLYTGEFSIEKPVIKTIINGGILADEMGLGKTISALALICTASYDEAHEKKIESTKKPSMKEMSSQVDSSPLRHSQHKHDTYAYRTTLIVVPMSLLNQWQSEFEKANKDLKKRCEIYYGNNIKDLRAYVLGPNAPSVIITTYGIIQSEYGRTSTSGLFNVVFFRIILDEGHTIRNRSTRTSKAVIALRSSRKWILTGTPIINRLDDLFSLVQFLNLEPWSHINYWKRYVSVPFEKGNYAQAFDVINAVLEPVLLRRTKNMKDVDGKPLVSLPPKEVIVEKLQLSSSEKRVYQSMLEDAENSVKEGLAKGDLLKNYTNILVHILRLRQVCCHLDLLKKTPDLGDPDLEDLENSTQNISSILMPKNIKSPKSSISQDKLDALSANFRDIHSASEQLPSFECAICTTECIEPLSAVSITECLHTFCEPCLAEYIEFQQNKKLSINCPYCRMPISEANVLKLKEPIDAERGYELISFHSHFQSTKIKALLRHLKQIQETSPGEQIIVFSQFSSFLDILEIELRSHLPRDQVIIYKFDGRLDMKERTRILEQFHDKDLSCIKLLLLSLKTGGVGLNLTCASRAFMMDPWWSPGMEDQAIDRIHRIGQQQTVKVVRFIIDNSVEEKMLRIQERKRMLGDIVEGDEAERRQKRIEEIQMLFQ

KlRad5 [1] = molecular target: T2, KlRad5 (Kluyveromyces lactis, UniProt Q6CJM4 163-1114); assay: fluorescence polarization; 70 mM NaCl; FP: 20 mM Tris pH 7.5, 50 mM (dsDNA, KlHIRAN) or 70 mM (ssDNA) NaCl, 2 mM MgCl2, 1 nM DNA, room temp; EMSA: 20 mM Tris pH 7.5, 100 mM KCl, 0.5 mM DTT, 3% glycerol, 2 mM MgCl2, 250 ug/mL BSA, 4 C; pull-down: 20 mM Tris pH 7.5, 50 mM NaCl, 4 C; details: protein: recombinant; tags: none; label: 5'-FAM
T2 sequence: T1 sequence

KlRad5 [2] = molecular target: T2, KlRad5; assay: fluorescence polarization; 70 mM NaCl; similar to 5'-FAM; FP: 20 mM Tris pH 7.5, 50 mM (dsDNA, KlHIRAN) or 70 mM (ssDNA) NaCl, 2 mM MgCl2, 1 nM DNA, room temp; EMSA: 20 mM Tris pH 7.5, 100 mM KCl, 0.5 mM DTT, 3% glycerol, 2 mM MgCl2, 250 ug/mL BSA, 4 C; pull-down: 20 mM Tris pH 7.5, 50 mM NaCl, 4 C; details: protein: recombinant; tags: none; label: 3'-FAM
ScHIRAN = molecular target: T3, ScHIRAN (Saccharomyces cerevisiae, UniProt P32849 171-375); assay: EMSA; FP: 20 mM Tris pH 7.5, 50 mM (dsDNA, KlHIRAN) or 70 mM (ssDNA) NaCl, 2 mM MgCl2, 1 nM DNA, room temp; EMSA: 20 mM Tris pH 7.5, 100 mM KCl, 0.5 mM DTT, 3% glycerol, 2 mM MgCl2, 250 ug/mL BSA, 4 C; pull-down: 20 mM Tris pH 7.5, 50 mM NaCl, 4 C; details: protein: recombinant; tags: intein-CBD cleaved off; label: 5'-FAM
T3 sequence: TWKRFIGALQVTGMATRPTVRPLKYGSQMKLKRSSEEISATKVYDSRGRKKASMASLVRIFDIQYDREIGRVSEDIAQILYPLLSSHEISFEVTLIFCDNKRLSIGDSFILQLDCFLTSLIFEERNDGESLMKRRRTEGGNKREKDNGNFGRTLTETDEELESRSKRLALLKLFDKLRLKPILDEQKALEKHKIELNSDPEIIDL

KlHIRAN = molecular target: T4, KlHIRAN (Kluyveromyces lactis, UniProt Q6CJM4 174-341); assay: as above; details: protein: recombinant; tags: intein-CBD cleaved off; label: 5'-FAM
T4 sequence: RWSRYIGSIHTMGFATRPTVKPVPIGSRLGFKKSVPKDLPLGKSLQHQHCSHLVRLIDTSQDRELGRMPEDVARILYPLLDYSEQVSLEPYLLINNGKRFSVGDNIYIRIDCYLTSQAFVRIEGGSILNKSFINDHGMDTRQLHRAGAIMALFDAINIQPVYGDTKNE

HsHIRAN = molecular target: T5, HsHIRAN (Homo sapiens, UniProt Q14527 55-180); assay: EMSA; strong preference for free 3'-OH; FP: 20 mM Tris pH 7.5, 50 mM (dsDNA, KlHIRAN) or 70 mM (ssDNA) NaCl, 2 mM MgCl2, 1 nM DNA, room temp; EMSA: 20 mM Tris pH 7.5, 100 mM KCl, 0.5 mM DTT, 3% glycerol, 2 mM MgCl2, 250 ug/mL BSA, 4 C; pull-down: 20 mM Tris pH 7.5, 50 mM NaCl, 4 C; details: protein: recombinant; tags: His (pET28a), HA; label: 5'-FAM
T5 sequence: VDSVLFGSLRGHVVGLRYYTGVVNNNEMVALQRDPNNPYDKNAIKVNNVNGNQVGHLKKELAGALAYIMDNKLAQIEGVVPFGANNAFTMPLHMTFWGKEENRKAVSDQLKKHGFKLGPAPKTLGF

TTTTTTTCGTCTTCGGCAATTTTTT (ssDNA) [S1 ssDNA, 5'-FAM]
binding result (His-KlRad5): binds | binding result (KlRad5 [1]): binds

TTTTTTTCGTCTTCGGCAATTTTTT (ssDNA) [S1 ssDNA, 3'-FAM]
binding result (KlRad5 [2]): binds

TTTTTTTTTT (ssDNA) [dT10, 5'-FAM]
binding result (ScHIRAN): binds | binding result (KlHIRAN): binds | binding result (HsHIRAN): binds
